Patent US20260124314A1, “ANTl-5T4 ANTIGEN BINDING DOMAINS, ANTIBODY-DRUG CONJUGATES AND METHODS OF USE THEREOF” (Salubris Biotherapeutics, Inc., priority 2023, published 2026)

B1: Bs3-HL-FCA biparatopic anti-5T4 antibody (Bs3 with the scFv in the VH-VL orientation and the L234F, S239C and N434A mutations) (bispecific antibody, human IgG1, kappa)
heavy: QVQLVQSGAEVKKPGASVKVSCKASGYSFTDYYMHWVRQAPGQGLEWMGRVSPNNGATNTNQKFKDRVTMTRDTSISTAYMELRSLRSEDTAVYYCARSTMITSYYFDYWGQGTLVTVSSASTKGPSVFPLAPSSKSTSGGTAALGCLVKDYFPEPVTVSWNSGALTSGVHTFPAVLQSSGLYSLSSVVTVPSSSLGTQTYICNVNHKPSNTKVDKRVEPKSCDKTHTCPPCPAPEFLGGPCVFLFPPKPKDTLMISRTPEVTCVVVDVSHEDPEVKFNWYVDGVEVHNAKTKPREEQYNSTYRVVSVLTVLHQDWLNGKEYKCKVSNKALPAPIEKTISKAKGQPREPQVYTLPPSREEMTKNQVSLTCLVKGFYPSDIAVEWESNGQPENNYKTTPPVLDSDGSFFLYSKLTVDKSRWQQGNVFSCSVMHEALHAHYTQKSLSLSPGKGGGGSGGGGSGGGGSEVQLLESGGGLVQPGGSLRLSCAASGFDFSRYWMTWVRQAPGKCLEWVSEINPDSRTINYTPSLKDRFTISRDNAKNTLYLQMNSLRAEDTAVYYCARPDHDYNPYYFNYWGQGTTVTVSSGGGGSGGGGSGGGGSGGGGSDIVLTQSPASLAVSLGQRATISCRPSQSVSTSSNSYIHWYQQKPGQPPKLLIKYASNLESGVPARFSGSGSGTDFTLTISPVEAEDTATYYCQQSWEIPLTFGCGTKLEIK
light: DIVMTQSPSFLSVSVGDRVTITCKASQSVSTDVAWYQQKPGQAPKLLIYFASDRYTGVPDRFSGSGSGTDFTFTISSLQAEDVAVYYCQQDYSSPPTFGGGTKLEIKRTVAAPSVFIFPPSDEQLKSGTASVVCLLNNFYPREAKVQWKVDNALQSGNSQESVTEQDSKDSTYSLSSTLTLSKADYEKHKVYACEVTHQGLSSPVTKSFNRGEC
notes: also called 5T4-Bs3- FCA; BsAb with the FCA mutations
B2: Parental Ab1 without Fc mutations: parental anti-5T4 Antibody (Ab1) without Fc mutations, used as a positive control for FcR binding (antibody, V domains shown)
VH: QVQLVQSGAEVKKPGASVKVSCKASGYSFTDYYMHWVRQAPGQGLEWMGRVSPNNGATNTNQKFKDRVTMTRDTSISTAYMELRSLRSEDTAVYYCARSTMITSYYFDYWGQGTLVTVSS
VL: DIVMTQSPSFLSVSVGDRVTITCKASQSVSTDVAWYQQKPGQAPKLLIYFASDRYTGVPDRFSGSGSGTDFTFTISSLQAEDVAVYYCQQDYSSPPTFGGGTKLEIK

Legend:
FcγRIIIa (158V) [1] = target: T1, FcγRIIIa (158V) (UniProt P08637 17-208); test: SPR (Biacore 8K), antibody captured on Protein A chip, Fc receptor as analyte
T1 construct: 158 is usually counted on the mature protein (176 on the precursor); also called Fc gamma receptor IIIa
Description: (§1) A total of 5 Fc receptors, including FcγRI (Abcam), FcγRIIa, FcγRIIb, FcγRIIIa (158V), and FcγRIIIb (Sino Biological), were analyzed. […] SPR kinetic experiments were performed on Biacore 8K systems (GE Healthcare) with HBS-EP+ as running buffer. […] Capture level for each ligand was maintained between 50-100RU. […] After each binding cycle, the sensor chip was regenerated with glycine solution, pH 1.5. The resulting sensorgrams were fitted with a one-to-one binding model to extract kinetic constants using Biacore 8K Evaluation Software.

FcγRIIIb [2] = target: T2, FcγRIIIb (UniProt O75015 17-200, limits assumed); test: as above
T2 construct: also called Fc gamma receptor IIIb
Description: as §1

[3] = target: T3, recombinant human 5T4 protein (human, UniProt Q13641 32-355); test: SPR (Biacore 8K), antibody captured on Protein A chip, 5T4 as analyte 0.625-10 nM, 1:1 model
T3 construct: The ELISA protein was bought (Sino biologics and Biorbyt); also called recombinant 5T4 protein; trophoblast glycoprotein (TPBG)
T3 sequence: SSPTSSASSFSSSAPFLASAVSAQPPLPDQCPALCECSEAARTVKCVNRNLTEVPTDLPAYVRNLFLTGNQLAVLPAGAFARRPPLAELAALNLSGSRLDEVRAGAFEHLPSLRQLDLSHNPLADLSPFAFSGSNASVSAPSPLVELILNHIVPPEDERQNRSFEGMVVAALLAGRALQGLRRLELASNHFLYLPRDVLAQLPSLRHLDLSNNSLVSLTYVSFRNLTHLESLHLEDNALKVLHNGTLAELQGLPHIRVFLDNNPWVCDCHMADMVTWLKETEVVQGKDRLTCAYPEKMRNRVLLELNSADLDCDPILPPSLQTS
Description: The binding affinity of anti-5T4 bispecific antibody-drug conjugate monospecific and bispecific antibodies to 5T4 was measured by Biacore kinetic experiments using a Protein A sensor chip on Biacore 8K (Cytiva) with HBS-EP+ as running buffer. […] After each binding cycle, the sensor chip was regenerated with glycine solution, pH 1.5. Signals from reference surface and an ensemble of buffer blank injections were subtracted from binding signals to correct for nonspecific binding and injection artifacts. The corrected experimental signals were globally fitted to a 1:1 binding model to extract kinetic constants, including association rate constant (ka), dissociation rate constant (kd), and equilibrium dissociation constant (KD), using the Biacore 8K Evaluation Software.

FcγRI (Abcam) = target: T4, FcγRI (Abcam) (UniProt P12314 16-288, limits assumed); test: SPR (Biacore 8K), antibody captured on Protein A chip, Fc receptor as analyte, 1:1 model
T4 construct: also called Fc gamma receptor I
Description: as §1

FcγRIIa [4] = target: T5, FcγRIIa (UniProt P12318 34-218, limits assumed); test: as above
T5 construct: also called Fc gamma receptor IIa
T5 sequence (looked up): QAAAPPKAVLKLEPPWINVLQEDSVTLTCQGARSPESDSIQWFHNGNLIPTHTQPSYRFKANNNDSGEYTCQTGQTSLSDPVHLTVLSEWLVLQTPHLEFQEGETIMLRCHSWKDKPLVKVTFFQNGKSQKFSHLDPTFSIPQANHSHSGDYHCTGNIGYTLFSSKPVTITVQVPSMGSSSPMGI
Description: as §1

FcγRIIb [5] = target: T6, FcγRIIb (UniProt P31994 43-217, limits assumed); test: as above
T6 construct: also called Fc gamma receptor IIb
T6 sequence (looked up): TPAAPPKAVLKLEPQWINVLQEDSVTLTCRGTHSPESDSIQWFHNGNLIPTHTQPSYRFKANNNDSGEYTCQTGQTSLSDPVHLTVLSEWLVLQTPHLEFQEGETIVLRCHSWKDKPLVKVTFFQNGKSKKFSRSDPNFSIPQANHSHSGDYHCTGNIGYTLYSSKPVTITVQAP
Description: as §1

FcγRIIIb [6] = target: T7, FcγRIIIb (Homo sapiens, UniProt O75015); test: FcγR binding activity, Biacore SPR; details: antibody captured on protein A chip, receptor 0.41 nM to 100 nM
T7 construct: purchased Sino Biological
Description: (§2) Site mutations (L234F and S239C) in the Fc region of anti-5T4 bispecific antibody-drug conjugates were designed to mitigate potential side effects which could be caused by the antibody effector function. To confirm the mutations had the intended effect of reducing Fc receptor binding activities, the affinities between an anti-5T4 bispecific antibody with Fc mutations and an array of Fc receptors were evaluated by Biacore assay. A total of 5 Fc receptors, including FcγRI (Abcam), FcγRIIa, FcγRIIb, FcγRIIIa (158V), and FcγRIIIb (Sino Biological), were analyzed. One parental anti-5T4 Antibody (Ab1) without Fc mutations, was used as a positive control for FcR binding. SPR kinetic experiments were performed on Biacore 8K systems (GE Healthcare) with HBS-EP+ as running buffer. Antibodies were captured in the active flow cell of a protein A sensor chip (Cytiva). Capture level for each ligand was maintained between 50-100RU. For kinetic analysis, each receptor was serially diluted to 6 different concentrations, ranging from 0.41 nM to 100 nM, and the serial dilutions were injected sequentially over both reference and active flow cells in each single channel. After each binding cycle, the sensor chip was regenerated with glycine solution, pH 1.5. The resulting sensorgrams were fitted with a one-to-one binding model to extract kinetic constants using Biacore 8K Evaluation Software.
(§3) Site mutations (L234F, S239C and N434A) in the Fc region of the Bs3-HL biparatopic antibody are designed to mitigate potential side effects caused by the antibody effector function.

FcγRIIa [7] = target: T8, FcγRIIa (Homo sapiens, UniProt P12318); test: FcγR binding activity, Biacore SPR; details: antibody captured on protein A chip, receptor 0.41 nM to 100 nM
T8 construct: purchased Sino Biological
T8 sequence (P12318 34-317): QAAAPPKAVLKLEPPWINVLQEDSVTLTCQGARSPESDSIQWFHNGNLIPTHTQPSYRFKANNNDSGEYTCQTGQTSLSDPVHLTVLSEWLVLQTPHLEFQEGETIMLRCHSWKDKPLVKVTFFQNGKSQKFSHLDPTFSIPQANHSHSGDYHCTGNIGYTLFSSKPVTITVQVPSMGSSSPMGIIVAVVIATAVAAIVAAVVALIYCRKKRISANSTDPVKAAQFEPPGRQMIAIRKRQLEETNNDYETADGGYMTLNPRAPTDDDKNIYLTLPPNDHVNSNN
Description: as §2, §3

FcγRIIb [8] = target: T9, FcγRIIb (Homo sapiens, UniProt P31994); test: FcγR binding activity, Biacore SPR; details: antibody captured on protein A chip, receptor 0.41 nM to 100 nM
T9 construct: purchased Sino Biological
T9 sequence (P31994 43-310): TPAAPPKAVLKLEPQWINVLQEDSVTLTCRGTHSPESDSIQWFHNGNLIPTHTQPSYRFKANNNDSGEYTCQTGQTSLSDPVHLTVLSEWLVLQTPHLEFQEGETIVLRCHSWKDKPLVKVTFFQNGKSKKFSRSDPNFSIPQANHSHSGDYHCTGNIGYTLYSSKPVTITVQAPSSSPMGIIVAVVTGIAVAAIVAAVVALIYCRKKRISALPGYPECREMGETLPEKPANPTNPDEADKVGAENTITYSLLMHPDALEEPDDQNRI
Description: as §2, §3

FcγRI = target: T10, FcγRI (Homo sapiens, UniProt P12314); test: FcγR binding activity, Biacore SPR; details: antibody captured on protein A chip, receptor 0.41 nM to 100 nM
T10 construct: purchased Abcam
Description: (§4) A total of 5 Fc receptors, including FcγRI (Abcam), FcγRIIa, FcγRIIb, FcγRIIIa (158V), and FcγRIIIb (Sino Biological), were analyzed. One parental anti-5T4 Antibody (Ab1) without Fc mutations, was used as a positive control for FcR binding. SPR kinetic experiments were performed on Biacore 8K systems (GE Healthcare) with HBS-EP+ as running buffer. […] Capture level for each ligand was maintained between 50-100RU. […] After each binding cycle, the sensor chip was regenerated with glycine solution, pH 1.5. The resulting sensorgrams were fitted with a one-to-one binding model to extract kinetic constants using Biacore 8K Evaluation Software.

FcγRIIIa (158V) [9] = target: T11, FcγRIIIa (158V) (Homo sapiens, UniProt P08637, F176V); test: FcγR binding activity, Biacore SPR; details: antibody captured on protein A chip, receptor 0.41 nM to 100 nM
T11 construct: purchased Sino Biological
Description: as §4

T1 sequence (P08637 17-208 F176V): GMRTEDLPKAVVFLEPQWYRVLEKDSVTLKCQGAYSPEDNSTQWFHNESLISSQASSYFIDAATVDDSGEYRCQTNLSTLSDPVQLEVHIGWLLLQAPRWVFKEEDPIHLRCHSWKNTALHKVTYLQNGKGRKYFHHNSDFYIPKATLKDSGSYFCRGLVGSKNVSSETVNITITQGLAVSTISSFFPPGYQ
T11 sequence (P08637 17-208 F176V limits assumed): as the sequence (P08637 17-208 F176V) above
T4 sequence (P12314 16-288 limits assumed): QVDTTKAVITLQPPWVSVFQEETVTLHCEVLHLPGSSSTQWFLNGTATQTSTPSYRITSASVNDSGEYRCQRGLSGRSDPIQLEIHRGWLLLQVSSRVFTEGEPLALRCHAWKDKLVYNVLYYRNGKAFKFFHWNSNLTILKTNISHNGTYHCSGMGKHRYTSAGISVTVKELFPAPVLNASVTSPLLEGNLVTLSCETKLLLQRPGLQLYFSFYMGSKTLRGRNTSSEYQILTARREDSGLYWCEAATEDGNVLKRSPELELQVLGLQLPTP
T7 sequence (O75015 17-200): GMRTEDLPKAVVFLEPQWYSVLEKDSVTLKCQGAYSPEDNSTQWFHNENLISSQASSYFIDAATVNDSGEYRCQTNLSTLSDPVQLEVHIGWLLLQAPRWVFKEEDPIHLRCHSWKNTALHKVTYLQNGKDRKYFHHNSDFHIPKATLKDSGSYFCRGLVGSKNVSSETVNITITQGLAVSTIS
T2 sequence (O75015 17-200 limits assumed): as the sequence (O75015 17-200) above
T10 sequence (P12314 16-374): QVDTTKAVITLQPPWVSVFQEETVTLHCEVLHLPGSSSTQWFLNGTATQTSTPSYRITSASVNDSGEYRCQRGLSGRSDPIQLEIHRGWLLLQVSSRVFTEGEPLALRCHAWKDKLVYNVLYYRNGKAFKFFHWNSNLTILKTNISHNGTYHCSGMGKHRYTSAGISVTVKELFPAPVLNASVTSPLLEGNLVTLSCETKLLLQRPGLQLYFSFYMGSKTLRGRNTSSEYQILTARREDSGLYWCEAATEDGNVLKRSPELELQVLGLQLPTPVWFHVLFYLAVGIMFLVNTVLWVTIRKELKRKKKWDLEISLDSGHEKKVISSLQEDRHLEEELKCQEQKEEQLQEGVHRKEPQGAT

Row | Molecule | binding result (FcγRIIIa (158V) [1]) | binding result (FcγRIIIb [2]) | Kd [3] | Kd (FcγRI (Abcam)) | Kd (FcγRIIa [4]) | Kd (FcγRIIb [5]) | KD for binding to FcγRIIIb (FcγRIIIb [6]) | Kd (FcγRIIa [7]) | Kd (FcγRIIb [8]) | Kd (FcγRI) | Kd (FcγRIIIa (158V) [9])
1 | B1 | no binding (tested: receptor 0.41 nM to 100 nM) | no binding (tested: receptor 0.41 nM to 100 nM) | 0.775 nM | 39.6 nM | 91.5 nM | 116 nM |  |  |  |  | 
2 | B2 |  |  |  |  |  |  | No binding | 98.6 nM | 111 nM | 3.73 nM | 50.5 nM
